Test results as given in the supplement of paper PMC11246515.
± gives the standard deviation of the averaged measurements.

Assay: total protein half-life in vivo (active degradation + dilution); higher = more stable protein
[1] = E. coli NCM3722 delta-clpP delta-lon delta-hslV, growth: N-lim chemostat, doubling time 6 h
[2] = E. coli NCM3722 delta-clpP, growth: N-lim chemostat, doubling time 6 h
[3] = E. coli NCM3722 delta-hslV, growth: N-lim chemostat, doubling time 6 h
[4] = E. coli NCM3722 delta-lon, growth: N-lim chemostat, doubling time 6 h
[5] = E. coli NCM3722 delta-smpB, growth: N-lim chemostat, doubling time 6 h
[6] = wild type E. coli NCM3722, growth: C-lim chemostat, doubling time 3 h
[7] = wild type E. coli NCM3722, growth: C-lim chemostat, doubling time 6 h
[8] = wild type E. coli NCM3722, growth: C-lim chemostat, doubling time 12 h
[9] = wild type E. coli NCM3722, growth: N-lim chemostat, doubling time 6 h
[10] = wild type E. coli NCM3722, growth: N-lim chemostat, doubling time 12 h
[11] = wild type E. coli NCM3722, growth: P-lim chemostat, doubling time 6 h
[12] = wild type E. coli NCM3722, growth: P-lim chemostat, doubling time 12 h

Row | Sequence | total protein half-life in vivo [1] [h] | total protein half-life in vivo [2] [h] | total protein half-life in vivo [3] [h] | total protein half-life in vivo [4] [h] | total protein half-life in vivo [5] [h] | total protein half-life in vivo [6] [h] | total protein half-life in vivo [7] [h] | total protein half-life in vivo [8] [h] | total protein half-life in vivo [9] [h] | total protein half-life in vivo [10] [h] | total protein half-life in vivo [11] [h] | total protein half-life in vivo [12] [h]
1 | MAEGKAMSEFLPFSRPAMGVEELAAVKEVLESGWITTGPKNQALEQAFCQLTGNQHAIAVSSATAGMHITLMALKIGKGDEVITPSLTWVSTLNMISLLGATPVMVDVDRDTLMVTPEAIESAITPRTKAIIPVHYAGAPADIDAIRAIGERYGIAVIEDAAHAVGTYYKGRHIGAKGTAIFSFHAIKNITCAEGGLIVTDNENLARQLRMLKFHGLGVDAYDRQTWGRAPQAEVLTPGYKYNLTDINAAIALTQLVKLEHLNTRRREIAQQYQQALAALPFQPLSLPAWPHVHAWHLFIIRVDEQRCGISRDALMEALKERGIGTGLHFRAAHTQKYYRERFPTLSLPNTEWNSERICSLPLFPDMTTADADHVITALQQLAGQ | 4.86 ± 0.74 | 3.7 ± 0.29 | 3.72 ± 0.19 | 4.52 ± 0.06 | 3.93 ± 0.41 | 3.52 ± 0.55 | 4.78 ± 0.6 | 9.35 ± 0.95 | 3.78 ± 0.055 | 6.38 ± 0.47 | 5.53 ± 0.55 | 11.7 ± 0.21
2 | MLWGFVFVSFISKELALGQSEYISWVKCTSWLSNFVNLRGLRQPDGRPLYEYHATNDEYTQLTQLLRAVGQSQSNICNRDFAACFVLFCSEWYRRDYERQCGWTWDPIYKKIGISFTATELGTIVPKGMEDYWLRPIRFYESERRNFLGTLFSEGGLPFRLLKESDSRFLAVFSRILGQYEQAKQSGFSALSLARAVIEKSALPTVFSEDTSVELISHMADNLNSLVLTHNLINHKEPVQQLEKVHPTWRSEFPIPLDDETGTHFLNGLLCAASVEAKPRLQKNKSTRCQFYWSEKHPDELRVIVSLPDEVSFPVTSEPSTTRFELAICEDGEEVSGLGPAYASLENRQATVRLRKSEVRFGRQNPSAGLSLVARAGGMIVGSIKLDDSEIAIGEVPLTFIVDADQWLLQGQASCSVRSSDVLIVLPRDNSNVAGFDGQSRAVNVLGLKALPVKGCQDVTVTANETYRIRTGREQISIGRFALNGKRASWVCHPDETFIGVPKVISTLPDIQSIDVTRYTC | – | – | – | – | – | – | – | – | 5.44 | – | – | –
3 | MIKKIFALPVIEQISPVLSRRKLDELDLIVVDHPQVKASFALQGAHLLSWKPAGEEEVLWLSNNTPFKNGVAIRGGVPVCWPWFGPAAQQGLPAHGFARNLPWTLKSHHEDADGVALTFELTQSEETKKFWPHDFTLLAHFRVGKTCEIDLESHGEFETTSALHTYFNVGDIAKVSVSGLGDRFIDKVNDAKENVLTDGIQTFPDRTDRVYLNPQDCSVINDEALNRIIAVGHQHHLNVVGWNPGPALSISMGDMPDDGYKTFVCVETAYASETQKVTKEKPAHLAQSIRVAKR | 5.78 ± 0.46 | 5.24 ± 0.6 | 6.17 ± 1.1 | 5.11 ± 0.53 | 5.67 ± 0.29 | – | – | 13 ± 1.6 | 5.42 ± 0.3 | 13.7 ± 2.5 | 5.72 ± 0.72 | 12.9 ± 1.8
4 | MKYKHLILSLSLIMLGPLAHAEEIGSVDTVFKMIGPDHKIVVEAFDDPDVKNVTCYVSRAKTGGIKGGLGLAEDTSDAAISCQQVGPIELSDRIKNGKAQGEVVFKKRTSLVFKSLQVVRFYDAKRNALAYLAYSDKVVEGSPKNAISAVPVMPWRQ [P0AE91] | 5.76 ± 0.34 | – | 6.57 ± 0.31 | – | 6.01 ± 0.23 | 2.92 ± 0.29 | 5.9682 ± 0.0034 | 12.1 ± 2.7 | 6.39 ± 1.3 | 13.3 ± 0.76 | 6.41 ± 0.56 | –
5 | MRRFLTTLMILLVVLVAGLSALVLLVNPNDFRDYMVKQVAARSGYQLQLDGPLRWHVWPQLSILSGRMSLTAQGASQPLVRADNMRLDVALLPLLSHQLSVKQVMLKGAVIQLTPQTEAVRSEDAPVAPRDNTLPDLSDDRGWSFDISSLKVADSVLVFQHEDDEQVTIRNIRLQMEQDPQHRGSFEFSGRVNRDQRDLTISLNGTVDASDYPHDLTAAIEQINWQLQGADLPKQGIQGQGSFQAQWQESHKRLSFNQISLTANDSTLSGQAQVTLTEKPEWQLRLQFPQLNLDNLIPLNETANGENGAAQQGQSQSTLPRPVISSRIDEPAYQGLQGFTADILLQASNVRWRGMNFTDVATQMTNKSGLLEITQLQGKLNGGQVSLPGTLDATSINPRINFQPRLENVEIGTILKAFNYPISLTGKMSLAGDFSGADIDADAFRHNWQGQAHVEMTDTRMEGMNFQQMIQQAVERNGGDVKAAENFDNVTRLDRFTTDLTLKDGVVTLNDMQGQSPVLALTGEGMLNLADQTCDTQFDIRVVGGWNGESKLIDFLKETPVPLRVYGNWQQLNYSLQVDQLLRKHLQDEAKRRLNDWAERNKDSRNGKDVKKLLEKM | 6.52 ± 0.57 | – | 6.45 ± 0.47 | 6.24 ± 0.085 | 6.43 ± 0.59 | 3.54 ± 0.42 | 6.18 ± 0.13 | 11.4 ± 0.47 | 6.231 ± 0.012 | 13 ± 0.012 | 6.266 ± 0.044 | 11.5 ± 0.13
6 | MKSLQALFGGTFDPVHYGHLKPVETLANLIGLTRVTIIPNNVPPHRPQPEANSVQRKHMLELAIADKPLFTLDERELKRNAPSYTAQTLKEWRQEQGPDVPLAFIIGQDSLLTFPTWYEYETILDNAHLIVCRRPGYPLEMAQPQYQQWLEDHLTHNPEDLHLQPAGKIYLAETPWFNISATIIRERLQNGESCEDLLPEPVLTYINQQGLYR [P0A752] | 4.39 ± 0.63 | – | 5 ± 0.32 | 5.03 ± 0.38 | 4.2 ± 0.31 | 3.34 ± 0.12 | 4.95 ± 0.23 | 11.3 ± 2.1 | 4.49 | 7.22 ± 0.54 | 5.47 | 8.78 ± 2.9
7 | MRLFNWRRQAVLNAMPLVKPDQVRTPWHEFWRRFRRQHMAMTAALFVILLIVVAIFARWIAPYDAENYFDYDNLNNGPSLQHWFGVDSLGRDIFSRVLVGAQISLAAGVFAVFIGAAIGTLLGLLAGYYEGWWDRLIMRICDVLFAFPGILLAIAVVAVLGSGIANVIIAVAIFSIPAFARLVRGNTLVLKQQTFIESARSIGASDMTVLLRHILPGTVSSIVVFFTMRIGTSIISAASLSFLGLGAQPPTPEWGAMLNEARADMVIAPHVAVFPALAIFLTVLAFNLLGDGLRDALDPKIKG | – | 6.63 | 6.48 ± 0.35 | – | 6.59 ± 0.99 | 3.08 ± 0.21 | 6.44 ± 0.14 | 13.6 | 6.817 ± 0.047 | 12.4 ± 1.2 | 6.55 ± 0.52 | –
8 | MNFPLIANIVVFVVLLFALAQTRHKQWSLAKKVLVGLVMGVVFGLALHTIYGSDSQVLKDSVQWFNIVGNGYVQLLQMIVMPLVFASILSAVARLHNASQLGKISFLTIGTLLFTTLIAALVGVLVTNLFGLTAEGLVQGGAETARLNAIESNYVGKVSDLSVPQLVLSFIPKNPFADLTGANPTSIISVVIFAAFLGVAALKLLKDDAPKGERVLAAIDTLQSWVMKLVRLVMQLTPYGVLALMTKVVAGSNLQDIIKLGSFVVASYLGLLIMFAVHGILLGINGVSPLKYFRKVWPVLTFAFTSRSSAASIPLNVEAQTRRLGVPESIASFAASFGATIGQNGCAGLYPAMLAVMVAPTVGINPLDPMWIATLVGIVTVSSAGVAGVGGGATFAALIVLPAMGLPVTLVALLISVEPLIDMGRTALNVSGSMTAGTLTSQWLKQTDKAILDSEDDAELAHH | 5.42 ± 0.17 | 4.76 ± 0.058 | 5.07 ± 0.26 | 5 ± 0.65 | 5.38 ± 0.78 | 3.35 ± 0.46 | 6.36 ± 1.8 | 11.4 ± 2 | 4.95 ± 1.1 | 8.91 ± 0.48 | 5.29 ± 0.62 | 7.43 ± 0.75
